Patent publication US20040009905A1 (B.M.R.A. Corporation B.V., priority 1998, published 2004)
Entries after “also recorded” stand apart in the source; their conditions may differ. Like-named read-outs stand apart in the source and are kept apart here. The star is where a group is joined. aminooxyacetyl = NOCC(=O)*

Experiments:
[1] = Circular dichroism spectroscopy of conformational properties; assay type: physicochemical; conditions: in TFE, 295K
Experimental: The conformational properties of TASP-V were studied in solution mainly by circular dichroism (CD) spectroscopy under various experimental conditions. In order to detect effects of template attachment on secondary and tertiary structure formation, the corresponding single (not template attached) peptide IV was also studied.
CD spectra were recorded on a Jobin Yvon Dichrograph Mark VI calibrated with D(+)-10-camphorsulfonic acid. All measurements were performed at 295K using quartz cells with a path length of 0.1 cm and each spectrum was the average of three repeated scans between 185 nm to 250 nm, with an integration time of Is for 0.8 nm steps. The spectra were corrected by substraction of the background solvent spectrum obtained under identical experimental conditions and smoothed for clarity of display. CD intensities are expressed as mean residue ellipticities (deg cm2 dmol-1), calculated by dividing the total molar ellipticities by the number of amino acids in the peptide.

domestic pigs [2] = conditions: pig, in vivo
Experimental: Experiments were performed on 16 domestic pigs of both sexes (body weight 20-30 kg). The animals were premedicated with atropine (0.05 mg/kg) and ketamine (Ketalar, ParkeDavis, USA, 20 mg/kg i.m.) and anaesthetized with thiopentone (5 mg/kg i.v.). A tracheostomy was performed and artificial ventilation was started using a volume regulated ventilator (type Siemens 900). During surgery, continuous i.v. infusion of Ringer's solution, thiopentone (15 mg/kg/h) and pancuronium bromide (0.25 mg/kg/h) was performed. […]
2. […] Airway pressure was measured from a catheter positioned at the tip of the endotracheal tube. Transpulmonary pressure was determined by a differential pressure transducer (Hewlett-Packard 267B) taking the difference between tracheal and oesophagus pressure. Tidal volume was determined by integration of the respiratory flow signal measured with a pneumotachograph (Gould Godard, model 17212) by means of a heated Fleisch flow transducer #2 connected to the endotracheal tube. Transpulmonary pressure, tidal volume and flow were continuously recorded on a 4-channel recorder (Hewlett-Packard, 7754 GB). Total airflow resistance across the lungs (raw) was determined by dividing the difference in transpulmonary pressure by inspiratory plus expiratory flow at mid-tidal volume. […]

domestic pigs [3] = conditions: pig, in vivo; remark: listed apart in the source
Experimental: Experiments were performed on 16 domestic pigs of both sexes (body weight 20-30 kg). The animals were premedicated with atropine (0.05 mg/kg) and ketamine (Ketalar, ParkeDavis, USA, 20 mg/kg i.m.) and anaesthetized with thiopentone (5 mg/kg i.v.). A tracheostomy was performed and artificial ventilation was started using a volume regulated ventilator (type Siemens 900). During surgery, continuous i.v. infusion of Ringer's solution, thiopentone (15 mg/kg/h) and pancuronium bromide (0.25 mg/kg/h) was performed.
Catheters were placed in the femoral artery for systemic blood pressure and heart rate monitoring and in the femoral vein for thiopentone and fluid administration (300 ml/h). […] Nasal arterial blood flow was monitored with a Transonic flow probe (RB 143) placed around the sphenopalatine artery and connected to a T 202 ultrasonic blood flowmeter (Transonic System Inc., Ithaca, N.Y., USA).
Heart rate and systemic arterial blood pressure using the femoral artery catheter connected to a pressure transducer.
Sphenopalatine arterial blood flow using an Ultrasonic flow meter probe (see above).

NPY Y2 receptor = target: T1, NPY Y2 receptor (Homo sapiens, UniProt P49146); assay: Y2 radioreceptor binding assay (125I-NPY displacement, LN319 cells); conditions: FIG. 7
T1 construct: endogenous in cells; host or cells: LN319 (human glioblastoma)
T1 sequence (P49146 1-381): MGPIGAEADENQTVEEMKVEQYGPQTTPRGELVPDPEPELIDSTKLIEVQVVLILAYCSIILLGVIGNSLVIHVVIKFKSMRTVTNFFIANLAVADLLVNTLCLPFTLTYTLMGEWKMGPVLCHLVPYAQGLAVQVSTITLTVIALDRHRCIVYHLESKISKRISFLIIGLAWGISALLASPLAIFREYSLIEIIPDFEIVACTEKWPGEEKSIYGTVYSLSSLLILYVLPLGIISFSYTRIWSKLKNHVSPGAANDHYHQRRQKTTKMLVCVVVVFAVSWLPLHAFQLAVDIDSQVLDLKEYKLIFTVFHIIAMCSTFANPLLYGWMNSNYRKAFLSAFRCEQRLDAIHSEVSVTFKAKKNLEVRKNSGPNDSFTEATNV
Experimental: Tissue culture media were purchased from Life Technologies (Basel, Switzerland) and fetal calf serum was obtained from Seromed (Berlin, Germany). 70% confluent cells were washed with PBS and harvested using 0.15% Trypsin containing 0.4 mM EDTA. Cells were further diluted 1/3 and plated onto either 60 mm cell culture dishes (Nunc, Denmark) or 12-mm glass coverslips (Huber and Co, AG, Reinach, Switzerland). Media were changed every 3 days. A human glioblastoma cell line, LN319, was used for Y2 binding studies (Greber, et al., Br. J. Pharmacol. 113:737-740 (1994)). Prior to performing binding assays, adhered LN319 cells were washed extensively with phosphate buffered saline. […] After centrifugation at 600 g for 15 minutes at a temperature of 4° C., the pellet was resuspended in the harvesting buffer. […] Incubation proceeded at room temperature for 45 minutes. Bound radioactivity was determined after separating the unbound fraction by centrifugation.

Question: With “IV: single, not template attached aminooxyacetyl NPY21-36 amide peptide (IV in FIG. 5) (aminooxyacetyl-YSALRHYINLITRQRY-NH2; SMILES CC[C@H](C)[C@H](NC(=O)[C@H](Cc1ccc(O)cc1)NC(=O)[C@H](Cc1c[nH]cn1)NC(=O)[C@H](CCCNC(=N)N)NC(=O)[C@H](CC(C)C)NC(=O)[C@H](C)NC(=O)[C@H](CO)NC(=O)[C@H](Cc1ccc(O)cc1)NC(=O)CON)C(=O)N[C@@H](CC(N)=O)C(=O)N[C@@H](CC(C)C)C(=O)N[C@H](C(=O)N[C@H](C(=O)N[C@@H](CCCNC(=N)N)C(=O)N[C@@H](CCC(N)=O)C(=O)N[C@@H](CCCNC(=N)N)C(=O)N[C@@H](Cc1ccc(O)cc1)C(N)=O)[C@@H](C)O)[C@@H](C)CC; UniProt P01303 49-64, looked up, fragment)” as the molecule, how does the “Helicity / secondary structure content by CD” value [1] read?
Answer: The value was < 30%.

Question: For `CC[C@H](C)[C@H](NC(=O)[C@H](Cc1ccc(O)cc1)NC(=O)[C@H](Cc1c[nH]cn1)NC(=O)[C@H](CCCNC(=N)N)NC(=O)[C@H](CC(C)C)NC(=O)[C@H](C)NC(=O)[C@H](CO)NC(=O)[C@H](Cc1ccc(O)cc1)NC(=O)CNC(=O)CON=CC(=O)NCCCC[C@@H]1NC(=O)CNC(=O)[C@H](CCCCNC(=O)C=NOCC(=O)NCC(=O)N[C@@H](Cc2ccc(O)cc2)C(=O)N[C@@H](CO)C(=O)N[C@@H](C)C(=O)N[C@@H](CC(C)C)C(=O)N[C@@H](CCCNC(=N)N)C(=O)N[C@@H](Cc2c[nH]cn2)C(=O)N[C@@H](Cc2ccc(O)cc2)C(=O)N[C@H](C(=O)N[C@@H](CC(N)=O)C(=O)N[C@@H](CC(C)C)C(=O)N[C@H](C(=O)N[C@H](C(=O)N[C@@H](CCCNC(=N)N)C(=O)N[C@@H](CCC(N)=O)C(=O)N[C@@H](CCCNC(=N)N)C(=O)N[C@@H](Cc2ccc(O)cc2)C(N)=O)[C@@H](C)O)[C@@H](C)CC)[C@@H](C)CC)NC(=O)c2ccc3cccc(c3c2)CNC1=O)C(=O)N[C@@H](CC(N)=O)C(=O)N[C@@H](CC(C)C)C(=O)N[C@H](C(=O)N[C@H](C(=O)N[C@@H](CCCNC(=N)N)C(=O)N[C@@H](CCC(N)=O)C(=O)N[C@@H](CCCNC(=N)N)C(=O)N[C@@H](Cc1ccc(O)cc1)C(N)=O)[C@@H](C)O)[C@@H](C)CC` [TASP-V], which “Change in heart rate or mean arterial blood pressure” value (domestic pigs [2]) is on record?
Answer: Its value is “did not induce any change”.

Question: And the “Change in heart rate or mean arterial blood pressure” value (domestic pigs [3])?
Answer: Its value is “did not induce any change”.

Question: For “Leu31, Pro34 NPY: Leu31- and Pro34-substituted NPY, shown to be a Y1 agonist”, which “Affinity / binding to the Y2 receptor (in words)” value (NPY Y2 receptor) is on record?
Answer: The value was “poor affinity binding; also recorded: bound poorly”.
